# B1: Fanconi anemia group J protein (Homo sapiens), Q9BX63 (parent)
# chain: MSSMWSEYTIGGVKIYFPYKAYPSQLAMMNSILRGLNSKQHCLLESPTGSGKSLALLCSALAWQQSLSGKPADEGVSEKAEVQLSCCCACHSKDFTNNDMNQGTSRHFNYPSTPPSERNGTSSTCQDSPEKTTLAAKLSAKKQASIYRDENDDFQVEKKRIRPLETTQQIRKRHCFGTEVHNLDAKVDSGKTVKLNSPLEKINSFSPQKPPGHCSRCCCSTKQGNSQESSNTIKKDHTGKSKIPKIYFGTRTHKQIAQITRELRRTAYSGVPMTILSSRDHTCVHPEVVGNFNRNEKCMELLDGKNGKSCYFYHGVHKISDQHTLQTFQGMCKAWDIEELVSLGKKLKACPYYTARELIQDADIIFCPYNYLLDAQIRESMDLNLKEQVVILDEAHNIEDCARESASYSVTEVQLRFARDELDSMVNNNIRKKDHEPLRAVCCSLINWLEANAEYLVERDYESACKIWSGNEMLLTLHKMGITTATFPILQGHFSAVLQKEEKISPIYGKEEAREVPVISASTQIMLKGLFMVLDYLFRQNSRFADDYKIAIQQTYSWTNQIDISDKNGLLVLPKNKKRSRQKTAVHVLNFWCLNPAVAFSDINGKVQTIVLTSGTLSPMKSFSSELGVTFTIQLEANHIIKNSQVWVGTIGSGPKGRNLCATFQNTETFEFQDEVGALLLSVCQTVSQGILCFLPSYKLLEKLKERWLSTGLWHNLELVKTVIVEPQGGEKTNFDELLQVYYDAIKYKGEKDGALLVAVCRGKVSEGLDFSDDNARAVITIGIPFPNVKDLQVELKRQYNDHHSKLRGLLPGRQWYEIQAYRALNQALGRCIRHRNDWGALILVDDRFRNNPSRYISGLSKWVRQQIQHHSTFESALESLAEFSKKHQKVLNVSIKDRTNIQDNESTLEVTSLKYSTSPYLLEAASHLSPENFVEDEAKICVQELQCPKIITKNSPLPSSIISRKEKNDPVFLEEAGKAEKIVISRSTSPTFNKQTKRVSWSSFNSLGQYFTGKIPKATPELGSSENSASSPPRFKTEKMESKTVLPFTDKCESSNLTVNTSFGSCPQSETIISSLKIDATLTRKNHSEHPLCSEEALDPDIELSLVSEEDKQSTSNRDFETEAEDESIYFTPELYDPEDTDEEKNDLAETDRGNRLANNSDCILAKDLFEIRTIKEVDSAREVKAEDCIDTKLNGILHIEESKIDDIDGNVKTTWINELELGKTHEIEIKNFKPSPSKNKGMFPGFK
# Variants of: B1
# Conditions: with brca1_human BRCA1, P38398
# Sequence of brca1_human BRCA1, P38398 (P38398 whole entry, looked up): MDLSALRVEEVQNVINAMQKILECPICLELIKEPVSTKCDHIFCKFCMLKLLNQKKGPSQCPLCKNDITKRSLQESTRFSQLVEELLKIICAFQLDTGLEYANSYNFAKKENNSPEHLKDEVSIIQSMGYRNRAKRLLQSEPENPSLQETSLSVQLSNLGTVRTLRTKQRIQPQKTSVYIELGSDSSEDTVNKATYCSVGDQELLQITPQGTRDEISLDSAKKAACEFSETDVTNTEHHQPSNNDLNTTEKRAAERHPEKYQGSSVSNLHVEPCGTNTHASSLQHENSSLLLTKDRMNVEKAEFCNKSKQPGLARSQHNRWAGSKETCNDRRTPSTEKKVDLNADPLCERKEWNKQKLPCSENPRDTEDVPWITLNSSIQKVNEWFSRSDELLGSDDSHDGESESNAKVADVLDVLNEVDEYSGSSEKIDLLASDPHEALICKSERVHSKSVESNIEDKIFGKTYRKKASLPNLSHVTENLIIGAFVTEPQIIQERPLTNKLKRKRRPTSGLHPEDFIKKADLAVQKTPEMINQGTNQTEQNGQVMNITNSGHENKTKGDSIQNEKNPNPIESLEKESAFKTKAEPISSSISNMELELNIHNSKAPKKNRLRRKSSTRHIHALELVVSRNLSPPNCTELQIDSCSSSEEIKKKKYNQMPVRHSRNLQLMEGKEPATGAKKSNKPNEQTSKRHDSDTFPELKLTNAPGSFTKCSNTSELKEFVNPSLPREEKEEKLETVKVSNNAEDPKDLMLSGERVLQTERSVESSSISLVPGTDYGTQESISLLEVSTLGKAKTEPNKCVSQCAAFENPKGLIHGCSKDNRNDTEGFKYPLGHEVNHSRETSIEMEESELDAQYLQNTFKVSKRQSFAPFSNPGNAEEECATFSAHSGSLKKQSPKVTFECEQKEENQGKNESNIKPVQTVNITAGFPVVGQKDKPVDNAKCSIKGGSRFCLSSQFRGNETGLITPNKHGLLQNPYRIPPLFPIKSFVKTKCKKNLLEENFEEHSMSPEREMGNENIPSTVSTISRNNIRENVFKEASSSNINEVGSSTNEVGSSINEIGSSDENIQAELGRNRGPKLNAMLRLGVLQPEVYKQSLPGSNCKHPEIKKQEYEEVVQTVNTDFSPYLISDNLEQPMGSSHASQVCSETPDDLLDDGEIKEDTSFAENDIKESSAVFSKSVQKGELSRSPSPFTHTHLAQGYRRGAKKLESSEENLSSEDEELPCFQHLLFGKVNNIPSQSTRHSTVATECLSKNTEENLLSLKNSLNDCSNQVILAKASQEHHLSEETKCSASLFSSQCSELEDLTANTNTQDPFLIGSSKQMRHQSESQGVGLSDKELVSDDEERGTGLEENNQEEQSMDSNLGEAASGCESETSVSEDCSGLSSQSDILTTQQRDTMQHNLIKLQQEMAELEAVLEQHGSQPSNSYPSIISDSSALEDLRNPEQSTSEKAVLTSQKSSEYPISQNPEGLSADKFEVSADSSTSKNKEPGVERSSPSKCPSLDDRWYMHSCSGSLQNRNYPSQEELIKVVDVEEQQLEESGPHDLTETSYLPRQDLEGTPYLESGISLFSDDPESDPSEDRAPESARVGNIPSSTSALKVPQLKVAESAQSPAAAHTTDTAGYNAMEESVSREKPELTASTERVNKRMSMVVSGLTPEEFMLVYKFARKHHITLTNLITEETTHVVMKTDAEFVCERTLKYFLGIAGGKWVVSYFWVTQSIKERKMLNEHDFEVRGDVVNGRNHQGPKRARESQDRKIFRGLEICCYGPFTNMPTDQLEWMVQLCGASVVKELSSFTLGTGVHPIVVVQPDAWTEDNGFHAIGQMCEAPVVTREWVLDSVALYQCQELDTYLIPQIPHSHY
row,Variant,effect of a mutation on the interaction
1,K1249R,with no effect
2,K1249Q,with no effect

# Source: IntAct's records for PubMed 22792074
